Reference: article PMC2763920 (Electrophoresis, 2009)
Where “and” joins values, the source holds several entries; their conditions need not be identical. Equal values may be shown once. Square brackets hold non-standard residues; d marks the D form. Ends that are not written are not given here. pY = N[C@@H](Cc1ccc(OP(=O)(O)O)cc1)C(=O)O

How the values were obtained:
GST-Fyn-SH3-SH2 [1] = target: T1, GST-Fyn-SH3-SH2 (fluorescein on the N-terminus; phosphotyrosine (pY) at position 7 of the printed letters); assay: high-speed capillary electrophoresis
GST-Fyn-SH3-SH2 [2] = target: T1, GST-Fyn-SH3-SH2; assay: high-speed capillary electrophoresis; remark: listed apart in the source
GST-Fyn-SH3-SH2 [3] = target: T1, GST-Fyn-SH3-SH2; assay: fluorescence polarisation

B1: Fluor-Fyn peptide (fluorescein-EEEEPQpYEEIPIYL) (peptide)
peptide: fluorescein-EEEEPQ[pY]EEIPIYL
- stoichiometry N (GST-Fyn-SH3-SH2 [1]): 0.5 peptide per protein (printed 2:1 protein: peptide, complex 1) and 1 peptide per protein (printed 2:2 protein: peptide, complex 2)
- t1/2 of complex 1 (GST-Fyn-SH3-SH2 [2]): 22 s
- t1/2 of complex 2 (GST-Fyn-SH3-SH2 [2]): 58.8 s
- t1/2, two component decay, first component (GST-Fyn-SH3-SH2 [3]): 3.3 s
- t1/2, two component decay, second component (GST-Fyn-SH3-SH2 [3]): 59.5 s
- t1/2 of the complex, single exponential decay (GST-Fyn-SH3-SH2 [3]): 21.2 ± 1.3 s
